B1: TPR t1 (parent)
chain: GACCAAUCUGCCCUCAGAGCUCGAGAACAUCUUCGGAUGCAGAGGAGGCAGGCUUCGGUGGCGCGAUAGCGCCAACGUCCUCAACCUCCAAUGCAUCCCACCACAUGAUGAUGCCUGAAGAGCCUUGGUUUUUUG

Consider 84 variants from the RNAGym collection of RNA variant scans (doi:10.1073/pnas.2313332121).

Variants of B1 are the subject of this data set. The data set is described as follows: polymerase ribozyme fitness, log enrichment relative to wild type (log ratio); higher = more active; in vitro selection for triplet polymerase activity. In outline:
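One round of in vitro selection, in triplicate, was applied to PCR-built, transcribed mutant libraries of each subunit of a heterodimeric triplet polymerase ribozyme. The steps were annealing with a biotinylated primer, partner subunit and triplets, incubation frozen at −7 °C, gel excision of extended constructs, streptavidin-bead capture and RT-PCR. Fitness is the logarithm, base 2, of genotype enrichment over wild-type enrichment from inverse-variance-weighted replicate averages of Illumina-sequenced inputs and outputs, keeping genotypes with ≥10 input reads and ≥1 read per output.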
Turning to U9G G47C G60C A83C, the “polymerase ribozyme fitness (log ratio)” value was -3.63.
On to U9A U21G A41U G45A U130G, for which the “polymerase ribozyme fitness (log ratio)” value is -4.18.
For U9G G36A, the “polymerase ribozyme fitness (log ratio)” value is -0.196.
Regarding U9G C85U C97A C115G, the “polymerase ribozyme fitness (log ratio)” value is -4.92.
With U9G G113C, the “polymerase ribozyme fitness (log ratio)” value is -1.34.
With U9G G113U, the “polymerase ribozyme fitness (log ratio)” value was -1.66.
Under U9C G36U G63A stands -1.4.
On to U9G G63U G128C, for which the “polymerase ribozyme fitness (log ratio)” value was -3.23.
In the case of U9G G60C U116A, the “polymerase ribozyme fitness (log ratio)” value was -1.45.
Turning to U9G C11A G63C, the “polymerase ribozyme fitness (log ratio)” value is -0.534.
Next, U9G G52U C82U: -1.33; U9G G65C A121U: -4.76; U9G G17A A18U A46U C73A A84G U87A U112C G127C U134A: -3.68.
Under U9C A16U C88A A95C A111U stands -5.45; under U9C G17U C72G A83C, -1.63.
Consider U9C G63A A74C C89A C104A U112C, for which the “polymerase ribozyme fitness (log ratio)” value was -5.39.
For U9A U38A U54A U96A U133G, the “polymerase ribozyme fitness (log ratio)” value was -1.53.
Take U9G G60U G77A U78C C98A G113C: the “polymerase ribozyme fitness (log ratio)” value is -5.81.
On to U9G G61U, for which the “polymerase ribozyme fitness (log ratio)” value stood at 0.804.
Consider U9C C56G C62U, for which the “polymerase ribozyme fitness (log ratio)” value came out at 0.103.
Turning to U9G G47A, the “polymerase ribozyme fitness (log ratio)” value is -1.81.
Take U9G G48U C49U C73G G120U: the “polymerase ribozyme fitness (log ratio)” value stood at 0.0812.
U9G C12A G42C G61C C115U: the “polymerase ribozyme fitness (log ratio)” value was -3.63.
Under U9C A105U U126A U132A stands -2.93; under U9A G127U, 0.46.
In the case of U9G G93C A100U A118G, the “polymerase ribozyme fitness (log ratio)” value was -1.35.
Next, U9G C11A U54G: -0.122; U9G C11A A18G A41U U78G: -4.42.
U9G A46C: the “polymerase ribozyme fitness (log ratio)” value was -0.961.
As for U9G G36C G69U A103C C104U, the “polymerase ribozyme fitness (log ratio)” value was -2.45.
With U9C C49U, the “polymerase ribozyme fitness (log ratio)” value was 0.0306.
Consider U9C G51U G61C C97A G120A U130C, for which the “polymerase ribozyme fitness (log ratio)” value was -4.88.
Under U9A U21A G45C C70A C82U U116G U132C G135C stands -1.83; under U9G A83C C85U A121C U130C, 1.97; under U9G A29G G42U, -2.93.
As to U9C A27U C73A C99A, the “polymerase ribozyme fitness (log ratio)” value was -7.21.
U9A G77U C123U: the “polymerase ribozyme fitness (log ratio)” value worked out at 1.84.
U9G C34A C73A G120C: the “polymerase ribozyme fitness (log ratio)” value is -0.727.
As for U9C G69U U78G A103U, the “polymerase ribozyme fitness (log ratio)” value was -1.88.
Consider U9G C76G A90C C101U, for which the “polymerase ribozyme fitness (log ratio)” value was -1.34.
U9G A46G C73U A75G U96A U106G: the “polymerase ribozyme fitness (log ratio)” value was -3.78.
Regarding U9G C62U A74U, the “polymerase ribozyme fitness (log ratio)” value is -0.576.
For the variant U9A U14G A41C G42U G60U G93U A121C, the “polymerase ribozyme fitness (log ratio)” value is 0.0286.
As for U9C G58C C114A G127U, the “polymerase ribozyme fitness (log ratio)” value is -3.7.
Consider U9A G93A C115U, for which the “polymerase ribozyme fitness (log ratio)” value was -1.19.
As to U9C A16U G63C, the “polymerase ribozyme fitness (log ratio)” value was 0.269.
Turning to U9G A37C G44U, the “polymerase ribozyme fitness (log ratio)” value was -1.47.
Take U9G A37U A100C: the “polymerase ribozyme fitness (log ratio)” value was -0.694.
Under U9G C13A C22G G48A stands -3.85; under U9G C28A U133A, -4.24; under U9G A100U G128A, -1.71.
Turning to U9C C12G C53G C62U, the “polymerase ribozyme fitness (log ratio)” value was -0.499.
U9A G58C A66G C85U: the “polymerase ribozyme fitness (log ratio)” value was -0.571.
With U9G C22G C34G G69U, the “polymerase ribozyme fitness (log ratio)” value was -3.72.
With U9G A50C G63C, the “polymerase ribozyme fitness (log ratio)” value is -1.21.
Turning to U9C A26G C72G C79U, the “polymerase ribozyme fitness (log ratio)” value was -0.65.
In the case of U9G C64U, the “polymerase ribozyme fitness (log ratio)” value turned out to be 0.223.
Turning to U9A G93A U106C, the “polymerase ribozyme fitness (log ratio)” value was -0.115.
For U9G C40U U54A C85A, the “polymerase ribozyme fitness (log ratio)” value is -1.24.
As to U9G G61A C97U A100C A108G, the “polymerase ribozyme fitness (log ratio)” value was -2.88.
Take U9C G45C G48A A90C: the “polymerase ribozyme fitness (log ratio)” value was -0.81.
As for U9G A41U G71A U81C U96A, the “polymerase ribozyme fitness (log ratio)” value is -5.71.
Turning to U9G G10U C70G U109G, the “polymerase ribozyme fitness (log ratio)” value was -6.73.
For the variant U9G C15U U21C A83C, the “polymerase ribozyme fitness (log ratio)” value was -0.505.
Regarding U9G A27G G60A A66C U78G G113U, the “polymerase ribozyme fitness (log ratio)” value was -6.12.
As to U9C C104U G122A, the “polymerase ribozyme fitness (log ratio)” value came to 0.29.
U9C U55G G69A: the “polymerase ribozyme fitness (log ratio)” value was -1.8.
Consider U9C C73A A74U, for which the “polymerase ribozyme fitness (log ratio)” value amounted to 0.19.
Regarding U9G A118U G120U G122A, the “polymerase ribozyme fitness (log ratio)” value is 1.52.
Consider U9G C13U C15A C40U G61C, for which the “polymerase ribozyme fitness (log ratio)” value was -2.7.
Consider U9G G65C, for which the “polymerase ribozyme fitness (log ratio)” value is -5.24.
On to U9C C99A C101U U132C, for which the “polymerase ribozyme fitness (log ratio)” value was -6.34.
Regarding U9C C40A G42C C73A C101A G122A U130A, the “polymerase ribozyme fitness (log ratio)” value is -1.67.
U9G G39A C86U G110U: the “polymerase ribozyme fitness (log ratio)” value was -2.18.
Consider U9A G65C A111U C123U G128A U133C, for which the “polymerase ribozyme fitness (log ratio)” value is -4.71.
With U9A G71A, the “polymerase ribozyme fitness (log ratio)” value worked out at 0.174.
Next, U9G U38C A46C U59C A66U U81A: -5.6.
Next, U9G C53A: 0.283; U9C C20G C101U G113U: -0.203.
For U9G G61U C70U C82U C115U C123A, the “polymerase ribozyme fitness (log ratio)” value was -3.33.
U9C C12G C13G A50C C70U C76A U78A C85U: the “polymerase ribozyme fitness (log ratio)” value is -2.55.
Under U9C C13A A27U G44C G48U C62U U112A stands -2.71; under U9C G47C G71U U132C, -2.26.
With U9G G19C C56A G69C, the “polymerase ribozyme fitness (log ratio)” value is -6.2.
